In patent US20240100162A1 (published 2024):

Assays:
Assay in all cases: killing
[1] = molecular target: T1, MAGE-B2 peptide, E6Y peptide on HLA-A*02:01 (human)
T1 peptide: GVYDGYEHSV

[2] = molecular target: T2, MAGE-B2 peptide, E6I peptide on HLA-A*02:01 (human)
T2 peptide: GVYDGIEHSV

[3] = molecular target: T3, MAGE-B2 peptide, E6R peptide on HLA-A*02:01 (human)
T3 peptide: GVYDGREHSV

[4] = molecular target: T4, MAGE-B2 peptide, E6F peptide on HLA-A*02:01 (human)
T4 peptide: GVYDGFEHSV

[5] = molecular target: T5, MAGE-B2 peptide, E7G peptide on HLA-A*02:01 (human)
T5 peptide: GVYDGEGHSV

[6] = molecular target: T6, MAGE-B2 peptide, E6A peptide on HLA-A*02:01 (human)
T6 peptide: GVYDGAEHSV

[7] = molecular target: T7, MAGE-B2 peptide, E6K peptide on HLA-A*02:01 (human)
T7 peptide: GVYDGKEHSV

[8] = molecular target: T8, MAGE-B2 peptide, G5A peptide on HLA-A*02:01 (human)
T8 peptide: GVYDAEEHSV

[9] = molecular target: T9, MAGE-B2 peptide, E6L peptide on HLA-A*02:01 (human)
T9 peptide: GVYDGLEHSV

[10] = molecular target: T10, MAGE-B2 peptide, E7R peptide on HLA-A*02:01 (human)
T10 peptide: GVYDGERHSV

[11] = molecular target: T11, MAGE-B2 peptide, G1W peptide on HLA-A*02:01 (human)
T11 peptide: WVYDGEEHSV

[12] = molecular target: T12, MAGE-B2 peptide, G1D peptide on HLA-A*02:01 (human)
T12 peptide: DVYDGEEHSV

[13] = molecular target: T13, MAGE-B2 peptide, G1E peptide on HLA-A*02:01 (human)
T13 peptide: EVYDGEEHSV

[14] = molecular target: T14, MAGE-B2 peptide, G5R peptide on HLA-A*02:01 (human)
T14 peptide: GVYDREEHSV

[15] = molecular target: T15, MAGE-B2 peptide, V10T peptide on HLA-A*02:01 (human)
T15 peptide: GVYDGEEHST

[16] = molecular target: T16, MAGE-B2 peptide, G5M peptide on HLA-A*02:01 (human)
T16 peptide: GVYDMEEHSV

[17] = molecular target: T17, MAGE-B2 peptide, V2A peptide on HLA-A*02:01 (human)
T17 peptide: GAYDGEEHSV

[18] = molecular target: T18, MAGE-B2 peptide, G1H peptide on HLA-A*02:01 (human)
T18 peptide: HVYDGEEHSV

[19] = molecular target: T19, MAGE-B2 peptide, G1N peptide on HLA-A*02:01 (human)
T19 peptide: NVYDGEEHSV

[20] = molecular target: T20, MAGE-B2 peptide, V2G peptide on HLA-A*02:01 (human)
T20 peptide: GGYDGEEHSV

[21] = molecular target: T21, MAGE-B2 peptide, D4E peptide on HLA-A*02:01 (human)
T21 peptide: GVYEGEEHSV

[22] = molecular target: T22, MAGE-B2 peptide, G1M peptide on HLA-A*02:01 (human)
T22 peptide: MVYDGEEHSV

[23] = molecular target: T23, MAGE-B2 peptide, V10M peptide on HLA-A*02:01 (human)
T23 peptide: GVYDGEEHSM

[24] = molecular target: T24, MAGE-B2 peptide, V2S peptide on HLA-A*02:01 (human)
T24 peptide: GSYDGEEHSV

[25] = molecular target: T25, MAGE-B2 peptide, G1I peptide on HLA-A*02:01 (human)
T25 peptide: IVYDGEEHSV

[26] = molecular target: T26, MAGE-B2 peptide, G1Y peptide on HLA-A*02:01 (human)
T26 peptide: YVYDGEEHSV

[27] = molecular target: T27, MAGE-B2 peptide, G5C peptide on HLA-A*02:01 (human)
T27 peptide: GVYDCEEHSV

[28] = molecular target: T28, MAGE-B2 peptide, G5L peptide on HLA-A*02:01 (human)
T28 peptide: GVYDLEEHSV

[29] = molecular target: T29, MAGE-B2 peptide, V10C peptide on HLA-A*02:01 (human)
T29 peptide: GVYDGEEHSC

[30] = molecular target: T30, MAGE-B2 peptide, G1T peptide on HLA-A*02:01 (human)
T30 peptide: TVYDGEEHSV

[31] = molecular target: T31, MAGE-B2 peptide, G1C peptide on HLA-A*02:01 (human)
T31 peptide: CVYDGEEHSV

[32] = molecular target: T32, MAGE-B2 peptide, V10F peptide on HLA-A*02:01 (human)
T32 peptide: GVYDGEEHSF

[33] = molecular target: T33, MAGE-B2 peptide, G1Q peptide on HLA-A*02:01 (human)
T33 peptide: QVYDGEEHSV

[34] = molecular target: T34, MAGE-B2 peptide, G1F peptide on HLA-A*02:01 (human)
T34 peptide: FVYDGEEHSV

[35] = molecular target: T35, MAGE-B2 peptide, G1V peptide on HLA-A*02:01 (human)
T35 peptide: VVYDGEEHSV

[36] = molecular target: T36, MAGE-B2 peptide, G1L peptide on HLA-A*02:01 (human)
T36 peptide: LVYDGEEHSV

[37] = molecular target: T37, MAGE-B2 peptide, G1S peptide on HLA-A*02:01 (human)
T37 peptide: SVYDGEEHSV

[38] = molecular target: T38, MAGE-B2 peptide, G1P peptide on HLA-A*02:01 (human)
T38 peptide: PVYDGEEHSV

[39] = molecular target: T39, MAGE-B2 peptide, E6D peptide on HLA-A*02:01 (human)
T39 peptide: GVYDGDEHSV

[40] = molecular target: T40, MAGE-B2 peptide, G5P peptide on HLA-A*02:01 (human)
T40 peptide: GVYDPEEHSV

Measured: binding result

B1: TCR3 (TCR, V domains shown)
Valpha: AQKVTQAQTEISVVEKEDVTLDCVYETRDTTYYLFWYKQPPSGELVFLIRRNSFDEQNEISGRYSWNFQKSTSSFNFTITASQVVDSAVYFCALSVLRMDSSYKLIFGSGTRLLVRP
Vbeta: NAGVTQTPKFRVLKTGQSMTLLCAQDMNHEYMYWYRQDPGMGLRLIHYSVGEGTTAKGEVPDGYNVSRLKKQNFLLGLESAAPSQTSVYFCASSLQGAGQPQHFGDGTRLSIL
recognises: [1] | [2] | [3] | [4] | [5] | [6] | [7] | [8] | [9] | [10]

B2: TCR1 (TCR, V domains shown)
Valpha: KQEVTQIPAALSVPEGENLVLNCSFTDSAIYNLQWFRQDPGKGLTSLLLIQSSQREQTSGRLNASLDKSSGRSTLYIAASQPGDSATYLCAAMKTSYDKVIFGPGTSLSVIP
Vbeta: GEEVAQTPKHLVRGEGQKAKLYCAPIKGHSYVFWYQQVLKNEFKFLISFQNENVFDETGMPKERFSAKCLPNSPCSLEIQATKLEDSAVYFCASSQGQGGYGYTFGSGTRLTVV
not listed: [1] | [2] | [3] | [4] | [5] | [6] | [7] | [8] | [9] | [10] | [39] | [40]
recognises: all other assays above

B3: TCR2 (TCR, V domains shown)
Valpha: QKEVEQNSGPLSVPEGAIASLNCTYSDRGSQSFFWYRQYSGKSPELIMSIYSNGDKEDGRFTAQLNKASQYVSLLIRDSQPSDSATYLCAVNIPFSNSGGYQKVTFGTGTKLQVIP
Vbeta: NAGVTQTPKFRVLKTGQSMTLLCAQDMNHEYMYWYRQDPGMGLRLIHYSVGEGTTAKGEVPDGYNVSRLKKQNFLLGLESAAPSQTSVYFCASRHPGQYNQPQHFGDGTRLSIL
recognises: [39] | [40]
